{
  "source": "patent US20230052369A1",
  "about": "(Zymeworks, published 2023)",
  "binders": {"B1": {"name": "v28726 (antibody, human IgG1, kappa, L234A L235A, V domains shown)", "VH": "EVQLVESGGGLIQPGGSLRLSCAVSGFSLTTYAISWVRQAPGKGLEWLGIIWPGGGTNYADSVKGRFTISKDNSKNTLYLQMNSLRAEDTAVYYCARGAGTWYFDVWGQGTLVTVSS", "VL": "DIQMTQSPSSLSASVGDRVTITCSASQGISNYLNWYQQKPGKTVKLLIYYTSSLHSGVPSRFSGSGSGTDYTLTISSLQPEDIATYYCQQYSKFPWTFGQGTKLEIKR", "notes": "also called humanized 1C8 H7L3"}, "B2": {"name": "v28728 (antibody, human IgG1, kappa, L234A L235A, V domains shown)", "VH": "B1 VH with L20I, V63L, F67L, L78V, A87T", "VL": "B1 VL with T43A, V44P", "notes": "also called humanized 1C8 H8L2"}, "B3": {"name": "v28730 (antibody, human IgG1, kappa, L234A L235A, V domains shown)", "VH": "B1 VH with L20I, V63L, F67L, L78V, A87T", "VL": "B1 VL", "notes": "also called humanized 1C8 H8L3"}, "B4": {"name": "v28727 (antibody, human IgG1, kappa, L234A L235A, V domains shown)", "VH": "B1 VH with L20I, V63L, F67L, L78V, A87T", "VL": "B1 VL with T43A, V44P, Y71F, L73F, L104V", "notes": "also called humanized 1C8 H8L1"}, "B5": {"name": "v28696 (antibody, human IgG1, kappa, L234A L235A, V domains shown)", "VH": "QVQLQESGPGLVKPSETLSLTCTVSGFSLISYGVHWIRQPPGKGLEWIGVIWSGGSTDYNPSLKSRVTISVDTSKNQFSLKLSSVTAADTAVYYCARNPLTATVMDYWGQGTLVTVSS", "VL": "DIQMTQSPSSLSASVGDRVTITCRASQNVGTNVAWYQQKPGKAPKALIYSASYRDSGVPSRFSGSGSGTDFTLTISSLQPEDFATYYCQQYNSYPLTFGGGTKVEIKR", "notes": "also called humanized 5G8 H1L2"}, "B6": {"name": "v28697 (antibody, human IgG1, kappa, L234A L235A, V domains shown)", "VH": "B5 VH", "VL": "B5 VL with I21V, L78V, V104L", "notes": "also called humanized 5G8 H1L3"}, "B7": {"name": "v28688 (antibody, human IgG1, kappa, L234A L235A, V domains shown)", "VH": "EVQLVESGGGLVQPGGSLRLSCAASGFTFSEFGMHWVRQAPGKGLEWVAYISSGGSTIYYADSVKGRFTISRDNAKNSLYLQMNSLRAEDTAVYYCARDWVDYWGQGTLLTVSS", "VL": "EIVLTQSPATLSLSPGERATLSCKASENVGSYVSWYQQKPGQAPRLLIYGASNRYTGVPARFSGSGSGTDFTLTISSLEPEDFAVYYCGQSYSYPLTFGGGTKVEIKR", "notes": "also called humanized 1G1 H2L2"}, "B8": {"name": "v28689 (antibody, human IgG1, kappa, L234A L235A, V domains shown)", "VH": "B7 VH", "VL": "B7 VL with L4M, A19V, L78V, V104L, I106L", "notes": "also called humanized 1G1 H2L3"}, "B9": {"name": "v28685 (antibody, human IgG1, kappa, L234A L235A, V domains shown)", "VH": "B7 VH with A49S, L110V", "VL": "B7 VL with L4M, A19V, L78V, V104L, I106L", "notes": "also called humanized 1G1 H1L3"}, "B10": {"name": "v28683 (antibody, human IgG1, kappa, L234A L235A, V domains shown)", "VH": "B7 VH with A49S, L110V", "VL": "B7 VL with V58I", "notes": "also called humanized 1G1 H1L1"}, "B11": {"name": "v28684 (antibody, human IgG1, kappa, L234A L235A, V domains shown)", "VH": "B7 VH with A49S, L110V", "VL": "B7 VL", "notes": "also called humanized 1G1 H1L2"}, "B12": {"name": "v28686 (antibody, human IgG1, kappa, L234A L235A, V domains shown)", "VH": "B7 VH with A49S, L110V", "VL": "B7 VL with L4M, A19V, L78V, F83L, V104L, I106L", "notes": "also called humanized 1G1 H1L4"}, "B13": {"name": "v28687 (antibody, human IgG1, kappa, L234A L235A, V domains shown)", "VH": "B7 VH", "VL": "B7 VL with V58I", "notes": "also called humanized 1G1 H2L1"}},
  "key": {"[1]": {"molecular_target": "T1, purified human monomeric 4-1BB (human, UniProt Q07011 24-186)", "T1 construct": "the assay used the 4-1BB part released by Factor Xa with the Fc removed; also called h4-1BB; human 4-1BB", "T1 sequence (Q07011 other isoform, or with tags, fused parts or gaps limits assumed)": "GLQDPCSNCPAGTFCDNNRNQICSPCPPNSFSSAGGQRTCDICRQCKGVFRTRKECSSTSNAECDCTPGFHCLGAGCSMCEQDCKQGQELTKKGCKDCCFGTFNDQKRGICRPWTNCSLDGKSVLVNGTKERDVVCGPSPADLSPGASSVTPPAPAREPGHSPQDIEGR", "assay": "SPR, mean n=3;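 also: antibodies captured on anti-human Fc chip, 4-1BB injected as five-point two-fold series from 40 nM by single-cycle kinetics at 25 °C, sensorgrams fitted to 1:1 Langmuir model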"}, "[2]": {"molecular_target": "T2, human 4-1BB, full-length, expressed on cells (human, UniProt Q07011 24-255)", "T2 construct": "also called CD137; TNFRSF9", "T2 sequence (Q07011 24-255)": "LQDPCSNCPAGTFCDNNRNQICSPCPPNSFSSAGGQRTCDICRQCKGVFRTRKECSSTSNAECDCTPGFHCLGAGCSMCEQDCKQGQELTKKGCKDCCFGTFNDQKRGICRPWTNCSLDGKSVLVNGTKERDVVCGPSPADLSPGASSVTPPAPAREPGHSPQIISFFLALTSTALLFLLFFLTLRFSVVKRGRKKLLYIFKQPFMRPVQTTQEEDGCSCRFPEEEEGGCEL", "assay": "flow cytometry, Jurkat-4-1BB"}},
  "note": "Substitutions are numbered along the chain they refer to.",
  "data": [
    {"binder": "B1", "values": [
      {"measurement": "Kd", "setting": "[1]", "result": 763, "unit": "nM"}
    ]},
    {"binder": "B2", "values": [
      {"measurement": "EC50", "setting": "[2]", "result": 713, "unit": "nM"},
      {"measurement": "Kd", "setting": "[1]", "result": 1420, "unit": "nM"}
    ]},
    {"binder": "B3", "values": [
      {"measurement": "EC50", "setting": "[2]", "result": 88.7, "unit": "nM"},
      {"measurement": "Kd", "setting": "[1]", "result": 762, "unit": "nM"}
    ]},
    {"binder": "B4", "values": [
      {"measurement": "EC50", "setting": "[2]", "result": 24.2, "unit": "nM"},
      {"measurement": "Kd", "setting": "[1]", "result": 813, "unit": "nM"}
    ]},
    {"binder": "B5", "values": [
      {"measurement": "Kd", "setting": "[1]", "result": 574, "unit": "nM"}
    ]},
    {"binder": "B6", "values": [
      {"measurement": "Kd", "setting": "[1]", "result": 735, "unit": "nM"}
    ]},
    {"binder": "B7", "values": [
      {"measurement": "EC50", "setting": "[2]", "result": 0.36, "unit": "nM"},
      {"measurement": "Kd", "setting": "[1]", "result": 69.2, "unit": "nM"}
    ]},
    {"binder": "B8", "values": [
      {"measurement": "EC50", "setting": "[2]", "result": 0.486, "unit": "nM"},
      {"measurement": "Kd", "setting": "[1]", "result": 58.3, "unit": "nM"}
    ]},
    {"binder": "B9", "values": [
      {"measurement": "EC50", "setting": "[2]", "result": 0.0551, "unit": "nM"},
      {"measurement": "Kd", "setting": "[1]", "result": 31.2, "unit": "nM"}
    ]},
    {"binder": "B10", "values": [
      {"measurement": "EC50", "setting": "[2]", "result": 0.223, "unit": "nM"},
      {"measurement": "Kd", "setting": "[1]", "result": 42.3, "unit": "nM"}
    ]},
    {"binder": "B11", "values": [
      {"measurement": "EC50", "setting": "[2]", "result": 0.247, "unit": "nM"},
      {"measurement": "Kd", "setting": "[1]", "result": 38.5, "unit": "nM"}
    ]},
    {"binder": "B12", "values": [
      {"measurement": "Kd", "setting": "[1]", "result": 31.1, "unit": "nM"}
    ]},
    {"binder": "B13", "values": [
      {"measurement": "EC50", "setting": "[2]", "result": 1, "unit": "nM"},
      {"measurement": "Kd", "setting": "[1]", "result": 40.3, "unit": "nM"}
    ]}
  ]
}
